Square brackets hold non-standard residues; d marks the D form. Ends that are not written are not given here. pS = N[C@@H](COP(=O)(O)O)C(=O)O
Molecular target: GST-MDC1-BRCT
Test: SPR

| Binder | Kd [nM] |
| --- | --- |
| AKLRFE[pS]QEMKG [MMSET phosphopeptide containing pS102] | 893 |
| KKATQA[pS]QEY [γH2AX peptide] | 287 |

Source: PMC3064261 (Nature, 2011)
